Molecular target: ubiquitin^TAMRA (C-terminal TAMRA-labelled ubiquitin) (UniProt P0CG48)
Assay: fluorescence polarisation

Substance | Kd [µM]
HOIP^LDD (domain or fragment) | 97
HOIP^LDD C930A (domain or fragment) | 734
